# According to a protein production outcome set (Wang et al. 2014):
# Experiment: label from the status in PepcDB records
# 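Further: failed if final PepcDB status was selected cloned or expressed and not failed if soluble or beyond.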
row,Sequence,protein production
1,MEVFKVFATLSLVDMISGPLGSVSEGMELLGGKVSALGSRMGKLAVAMAPVALAAGVLLGTLGLAAREAIAFESAMADVAKVVNFESAGELKAMSATILDMSTRIPMAADGLAAIVAAAAQSGVARQDLTDFAEQAAKMGVAFDLTGDQAGKMMADWRAGMNLTLPRVYALADATNHLSNNMNATAPALGEVIQRVGAVGMAAGLSETQVAALGAAFLSAGASPEIASTALKKFTSTLVRGSALSKDAQAAFGALGFSVTQMAKDMQTDAQGTIFKVLQALADKPKELQMSLLTEMFGEEALGAIAPLLANMGNLSQAFDLVGDSAAYAGSMQGEFEARSRTTENALLLLGNKAKALMIVIGSYFLPVIGAVADALGGFVDMLRAAAQTAGGEFALKLVAGVSAAIVAATALSGALWLLSAAGPMLAAALAPLKAALLGLSWPMWAIIAVVGALYLAYKTNFAGIGDTLRRWWQTVSLVVRGVMAVFSTLTDGVGEIRGELATEIRAAGLEGLVASVGSVVYRVQAFFRGLWDGVSGVGDRLAVVFGPTLDRLGAVFGQLFTVLGGLGEAFFGVSAASDVSGWERFGNVIGSVVCGAVEILATAFTALLAPIEMAAGMLQFVLDLFNGVSLFDAGAKLLGTFVDGIMSMVSAPFEAAKKALDMVGKLLPHSDADEGPLSTLTASGMATLSTMGEGMTAAAPGLHDTLETALGDAVAPQIEAPATADVQPGRKTARAAQGRGVTITIGTLNLPGVTNAQDFVAQLQDFVAAYDGVPEGGLV,failed
2,KVDKKTYKNLIVELQQRMREIQFALYERKIPLVLVFEGMDAAGKGGNIKRIREKLDPTGYEVNGISAPTDVELKHHYLWRFAKKMPKSGHIEIFDRSWYGRVLVERVEGFASQNEWQRASDEINQFEKMWTDEGTIILKFFLCLDKDEQLKRFKDRENNPDKQWKITEEDWRNREKWDEYLEASHDMIESTNTSYAPWYIVPADHKKTSRIEVLKTIIRKCEEVLWGVKTY,failed
3,MVNEYKRIVLLRGLECINKHYFSLFKSLLARDLNLERDNQEQYTTIQIANMMEEKFPADSGLGKLIEFCEEVPALRKRAEILKKERSEGETSLEKNGQEAGPATPTSTTSHMLASERGETSATQEETSTAQAGTSTAQAGTSTAQAGTSTA,not failed
4,MSSQLDECNRLLWEKCPVGLVLWRKNGALIDANSTYAAILGSTVPETLNFNYWQITPENYLASERTILEQLEQTGCHQAYEKEYLHQDGHLVPVKVSTVIIEKDGEKLMWSSVEDIS,not failed
5,MTEVAHTASGSTNTMDREGLPVAETTCAPGLPLWARPEARTALGDTLRPGGFSLTDRLATLAGVHPGWRVLDVGCGTGATVLHLRQRYGASAFGCDRSTSLTPGSNNHKGLPVIAADAANLPFADGSMKMVFCECVLSLLVKPLEVLRGLRRLLVPGGLLGVSDLYLRGEGHARVTEGSCLAWQATRMRIESLLHEAGFALHTFEDHSPLLRETAARLALSGALHGGAMNCGERAFPSRDACRRCSPEGIAAPPQATPCSMTECSFSPPATRAVTEQVARPGYFLLLAQSLKGTRED,failed
6,MSTLQTPGATLYSFRRCPYAMRARLALRYAGVPMRIVEVSLKAKPAEMLALSAKGTVPVLALEDRVIDESLEIMHWALAQHDPEDWRLTADPTAQAQMAALIAENDQVFKVHLNRYKYAERYPEAPMEHYRAQGEAFLARLDSLLQQRRYLLAEHPSLADMALLPFVRQFAHVDREWFAQTPYRSLQEWLQERLASELFLAVMAKQ,failed
7,MRMILMFDMPTETAEERKAYRKFRKFLLSEGFIMHQFSVYSKLLLNNTANNAMIGRLKVNNPKKGNITLLTVTEKQFARMVYLHGERNTSVANSDSRLVFLGDSYDQDLEHHHHHH,failed
8,MKAVLFDLDGTLIDTAADFIRIIQEMCREEQREVVDADLIRTQVSEGARAMVKLVYPELAVDDAVFLTHRQRFLDRYEQNIVVDTDLFKGMYPLLEMLESQQIPWGIVTNKPRHLTELLLERLNLTERCAVLVCPEDVQRTKPDPEPMFLAATQLHIAPEQIIYVGDHPRDIDAGRAAHMYTILAAYGYLPLQHKDNLNAWQADVIVQHVTELQKILSQQLHITPLNQDTMLQTS,failed
9,MHAFPLTLDNRLAEALPLWRNLARTDRAPRRNIDLADWKADWRELIAALDRFSRSHGYRQPFAAQGHAALENAWAWGQAAENASTLLLKAIDRGLAGAELRSIYLETAALWLDYSRLLGAARDSLREQGEVDFETAPALAPRTGQYPFALQLLAMGVLLDAQELIPALVEEVLQFDTDRLLDYLGAAALGLTSASEETFHPRPFGQLRAFFEEADGSDAQALAPYLQSQYREFFQLSPKAQKKTRRLTGPYAWGWWAMEVSALGVLYGWDDGVLRASPHYLGDLVDYARARGDA,not failed
10,MRETGSRPSRSGERRLSWLWLAMAASLVFAVFAVRPPSRIDNVLYDVLTRANAHPADDSILIVDIDDRSLARMGAWPWGRDTHARMVDQLTQAGAKTIVYDVLFSQPSRDPAQDRALGEAIARSGRVYLPEFLIDGGEQAPPRVVGSISEIARGAAGVGLAHVRFDDDGVVRRMAPFEANGPSLKPDLMTVVHRATRPPGSPDVTRGNEQTLLISFAGPPSIYRHASFASVLDGEVPRELIAGRTVFVGLTAPGLGPAFPTPVTPDAASMTGVQLQASVLDALRSGRMITPAGPWSRVGFSLTLLWLLMIGFMALPPRANLLLTIGLCLVGLAYSAALFWLGHIWLSPITTVIGLQLVALIWGWGRLGQVNDLIGRELARVRAVVRGRGAKPAAFSGDVVTRQASSLGDAITRMDDLRRFSADALFSLPDATLVANEQGRVIAANAAAQALFKPHQATLNGASLADLINLLDPLGRRFELDWPQATDRHDPIDLHLPDGRAFQLQTVLRRDEHGGPAGWIVRLADISILTAAMRQREQALQLLTHDMRSPQTSILALLATTPDLPKETADRIAAYARRTLALADGFVQLARAEVTPVSLEPLDLADVAVEAIDEVWPQSLQRKIRIEQVGGEAPLMVLGDRSVLARTFVNLLGNALKYSPSGSTITVNLAEQPSPSGPVACIAIADQGPGFSREEAATAFRPFQRFERPGHELASNGVGLGLAFVQAAVARHGGEVSCRSEPGVGAEFTVRLPRHGVVQGG,failed
11,MSDIKHEKKLANMDTPGETTKSFENKLDEEIPDIEESDFINSPPFSDEIFSPEDSKQVEISELSKQAYSLLKGNSITEAINVFKKILELDPTNNYALVGLGDAERKNNKFNEAIKFYKQCLEHHPSNNYALFGLADCYKSMNQFPRAIAIWEEYLKFDDKNITVLTRVADAYRKTKEFEKAEKLYQKVLEKSPKNAYALIGLGHLNYDFKKYREALVYWEKVMESSGELVDIRILTSIGNCYRKMKLFDRGVYYFERALERSPDNFYGLFGLADCYRGLNQQYNSIVYWKKILELDPNNKVILTRIGDAYRSMNDFEKAKESYQKALDIDFDSYAMLGLAILCKLQQKYDQAITTLTHLKDTGDTNYNYRVYLELAQCYIEKKEKQKAIETLIDFQKLGIKNQTVSDLLFELTKNDH,failed
12,MSPKTTKKIAILTSGGDAPGMNATLVYLTRYATSSEIEVFFVKNGYYGLYHDELVPAHQLDLSNSLFSAGTVIGSKRFVEFKELKVREQAAQNLKKRQIDYLVVIGGDGSYMGAKLLSELGVNCYCLPGTIDNDINSSEFTIGFLTALESIKVNVQAVYHTTKSHERVAIVEVMGRHCGDLAIFGALATNADFVVTPSNKMDLKQLESAVKKILQHQNHCVVIVSENIYGFDGYPSLTAIKQHFDANNMKCNLVSLGHTQRGFAPTSLELVQISLMAQHTINLIGQNKVNQVIGNKANVPVNYDFDQAFNMPPVDRSALIAVINKNII,failed
13,KTITGFYPLNQGHDALLARTSLIESAQKSLDLQYYIYRGDETSQLITWRLYEAAKRGVRIRLLLDDMQKRNDNVMAALNAHPNIEIRLFNPHQYRSARIFALTSDFERLNRRMHNKSLIADSVSAIVGGRNIGNEYFSFESEVEFGDFDLLLYGEAVQQTADQFDLYWNSVHAVPMEWISPQSQSVSDAAIQKQVTKLNLQEKFSSGRYDFTALDMYQ,failed
14,MTAVGADAPKPGAPIKEPRFGFLRRTYAMLVKELIQLKRDRLTFAMIIVIPVMQLLLFGYAINTTPRHLPTAVLLQEDSDLGRSILKALENTAYFKFTREVHSVAEFDDLLLSGRVLFGVEIPRGFERAVRRGEKPAILVAADATDPVAAGSALSALGQIVQTALMHDRVGGDPANPPFEIRAHARYNPAASSRLNIVPGLVGTILTMTMLIFTALSVTREIERGTMENLLSMPITPVEVMLGKILPYVGVGFIQASLILGIGVLLFGVPLRGSLAMLALLSTLFITTNLAIGYTFSTLVQNQLQAMQASMMFFLPSILLSGFMFPFAGMPIWAQYIGECLPLTHYLRIVRAIMLKGSTLENLQYDAVALLTLMLIAMTIAVTRFRRTLD,failed
15,PQLVRTHEDVPGPVGHLSFSEILDTSLKVSWQEPGEKNGILTGYRISWEEYNRTNTRVTHYLPNVTLEYRVTGLTALTTYTIEVAAMTSKGQGQVSASTISSGVPP,not failed
16,MLLTLEQELFTQFGYAAFKPGQKEVITNLLDGMNTLAVLPTGTGKSLCYQFVGQKLEGLTVIVSPLLSLMEDQMRQLQRQGIKGAVALNSTLQYSEKRYILAKMFQYDYLFLSPEMLLQQEVLSVLQRQKIALFVVDEAHCVYQWGVDFRPEYSKLDLVQKQLDFPLTLALTATATPVVQHAIIKQLFSHGSYQEVLSSVNRKNIGLFVKETSEKEEVLLDYLSKTAGKIIIYCATRNKTEQISQLIQAKTSFKVAYYHGGLEASERSRLQEQFIDNQIDILCATNAFGMGIDKPDVRGVIHFDLPDSLENYLQEIGRAGRDGQKSWALLLYKKGDEFIHRFFLEETRANRATLKSLIEGEEQAGLLENATELQQKWVQGYLAKDYSFEELEHRLEEKEKDRQAQLRGMLTYIETTTCRRTLIQTYFQEPIVKQSPETCCDNCALFFDIYQDSIVKSNKTSNQNEEGWRSKFLKLFKERD,failed
17,MGKKQKMKKAAQMATAAEKLKTAAEKSKTAADNVVAKEKPAEEASPSPSGSGKKGKPKATQKPNVAKALQKEISSSEDALDVKNKPPAGFSGAKGKPHIMGQMDPAYRNKIKKLMSLAKQLPPNVFSLPNSQKEEGASAAKSCVVEDDQSTDSDDAPDLVEADPKETQPDEQGQLGTVAVRTREVSKQSRGERKARRILMKLDLKPMENVARVTMKKGKNILLYIDQPDVYRVAHSSTYIFFGEICVEDTSTTSVASQAAVKAAERFRGTSPAGRQGNEDGKAPGEESPHDDDDDENDGEDADAMGLHAKDIELVQMQAACSRKKAIQALLKNDNDVVNAIMALTVG,failed
18,MRYLSKDILEEVITQRPSDSYKSNFGRVVLIGGNRQYGGAIIMSTEACINSGAGLTTVITDVKNHGPLHARCPEAMVVGFEETVLLTNVVEQADVILIGPGLGLDATAQQILKMVLAQHQKQQWLIIDGSAITLFSQGNFSLTYPEKVVFTPHQMEWQRLSHLPIEQQTLANNQRQQAKLGSTIVLKSHRTTIFHAGEPFQNTGGNPGMATGGTGDTLAGIIAGFLAQFKPTIETIAGAVYLHSLIGDDLAKTDYVVLPTKISQALPTYMKKYAQPHTAPDSELLEQKRSR,not failed
19,MVEAIIFDMDGVLFDTEKYYYDRRASFLGQKGISIDHLPPSFFIGGNTKQVWENILRDEYDKWDVSTLQEEYNTYKQNNPLPYKELIFPDVLKVLNEVKSQGLNIGLASSSVKADIFRALEENRLQAFFDIVLSGEEFKESKPNPEIYLTALKQLNVQASRALIIEDSEKGIAAGVAADVEVWAIRDNLFGMDQSAAKGLLDSLTDVLDLI,not failed
20,MPFRTIARLNPAKPKAGEEFRLQVVAQHPNEPGTRRDAEGKLIPAKYINLVEVYFEGEKVAEARPGPSTSANPLYAFKFKAEKAGTFTIKLKDTDGDTGEASVKLELV,not failed
